Assay results taken from publication PMC2661844, “HD-PTP Is a Catalytically Inactive Tyrosine Phosphatase Due to a Conserved Divergence in Its Phosphatase Domain” (PLoS ONE, 2009).

Key:
[1] = substrate: Cc1cc(=O)oc2c(F)c(OP(=O)(O)O)c(F)cc12; assay: fluorogenic DiFMUP hydrolysis, Michaelis-Menten fit; format: biochemical, Homo sapiens; settings: 50 mM Hepes, 3 mM DTT, 0.1 mg/ml BSA, pH 6.5, 37 °C, DiFMUP 0-300 µM, wild type inactive
Description: fluorogenic DiFMUP hydrolysis, Michaelis-Menten fit on Flag-HD-PTP catalytic domain (CD)

[2] = substrate: Cc1cc(=O)oc2c(F)c(OP(=O)(O)O)c(F)cc12; assay: as above; format: biochemical, Homo sapiens; settings: 50 mM Hepes, 3 mM DTT, 0.1 mg/ml BSA, pH 6.5, 37 °C, DiFMUP 0-300 µM, wild type inactive; remark: listed apart in the source
Description: fluorogenic DiFMUP hydrolysis, Michaelis-Menten fit on Flag-HD-PTP full-length (HD)

| Protein | Km [1] [µM] | kcat [1] [s⁻¹] | Km [2] [µM] | kcat [2] [s⁻¹] | kcat/Km [2] [M⁻¹ s⁻¹] |
| --- | --- | --- | --- | --- | --- |
| Flag-HD-PTP catalytic domain (CD) (Homo sapiens; S1394A) (protein, PTP catalytic domain, residues 1169-1460, 2xFlag tag kept, expressed in HEK 293T, anti-Flag purified) ERLRQLQQELEAFRGQLGDVGALDTVWRELQDAQEHDARGRSIAIARCYSLKNRHQDVMPYDSNRVVLRSGKDDYINASCVEGLSPYCPPLVATQAPLPGTAADFWLMVHEQKVSVIVMLVSEAEMEKQKVARYFPTERGQPMVHGALSLALSSVRSTETHVERVLSLQFRDQSLKRSLVHLHFPTWPELGLPDSPSNLLRFIQEVHAHYLHQRPLHTPIIVHCSAGVGRTGAFALLYAAVQEVEAGNGIPELPQLVRRMRQQRKHMLQEKLHLRFCYEAVVRHVEQVLQRH | 18 | 0.1 |  |  |  |
| Flag-HD-PTP full-length (HD) (Homo sapiens; S1394A) (protein, full length, residues 1-1636, 2xFlag tag kept, expressed in HEK 293T, anti-Flag purified) MEAVPRMPMIWLDLKEAGDFHFQPAVKKFVLKNYGENPEAYNEELKKLELLRQNAVRVPRDFEGCSVLRKYLGQLHYLQSRVPMGSGQEAAVPVTWTEIFSGKSVAHEDIKYEQACILYNLGALHSMLGAMDKRVSEEGMKVSCTHFQCAAGAFAYLREHFPQAYSVDMSRQILTLNVNLMLGQAQECLLEKSMLDNRKSFLVARISAQVVDYYKEACRALENPDTASLLGRIQKDWKKLVQMKIYYFAAVAHLHMGKQAEEQQKFGERVAYFQSALDKLNEAIKLAKGQPDTVQDALRFTMDVIGGKYNSAKKDNDFIYHEAVPALDTLQPVKGAPLVKPLPVNPTDPAVTGPDIFAKLVPMAAHEASSLYSEEKAKLLREMMAKIEDKNEVLDQFMDSMQLDPETVDNLDAYSHIPPQLMEKCAALSVRPDTVRNLVQSMQVLSGVFTDVEASLKDIRDLLEEDELLEQKFQEAVGQAGAISITSKAELAEVRREWAKYMEVHEKASFTNSELHRAMNLHVGNLRLLSGPLDQVRAALPTPALSPEDKAVLQNLKRILAKVQEMRDQRVSLEQQLRELIQKDDITASLVTTDHSEMKKLFEEQLKKYDQLKVYLEQNLAAQDRVLCALTEANVQYAAVRRVLSDLDQKWNSTLQTLVASYEAYEDLMKKSQEGRDFYADLESKVAALLERTQSTCQAREAARQQLLDRELKKKPPPRPTAPKPLLPRREESEAVEAGDPPEELRSLPPDMVAGPRLPDTFLGSATPLHFPPSPFPSSTGPGPHYLSGPLPPGTYSGPTQLIQPRAPGPHAMPVAPGPALYPAPAYTPELGLVPRSSPQHGVVSSPYVGVGPAPPVAGLPSAPPPQFSGPELAMAVRPATTTVDSIQAPIPSHTAPRPNPTPAPPPPCFPVPPPQPLPTPYTYPAGAKQPIPAQHHFSSGIPAGFPAPRIGPQPQPHPQPHPSQAFGPQPPQQPLPLQHPHLFPPQAPGLLPPQSPYPYAPQPGVLGQPPPPLHTQLYPGPAQDPLPAHSGALPFPSPGPPQPPHPPLAYGPAPSTRPMGPQAAPLTIRGPSSAGQSTPSPHLVPSPAPSPGPGPVPPRPPAAEPPPCLRRGAAAADLLSSSPESQHGGTQSPGGGQPLLQPTKVDAAEGRRPQALRLIERDPYEHPERLRQLQQELEAFRGQLGDVGALDTVWRELQDAQEHDARGRSIAIARCYSLKNRHQDVMPYDSNRVVLRSGKDDYINASCVEGLSPYCPPLVATQAPLPGTAADFWLMVHEQKVSVIVMLVSEAEMEKQKVARYFPTERGQPMVHGALSLALSSVRSTETHVERVLSLQFRDQSLKRSLVHLHFPTWPELGLPDSPSNLLRFIQEVHAHYLHQRPLHTPIIVHCSAGVGRTGAFALLYAAVQEVEAGNGIPELPQLVRRMRQQRKHMLQEKLHLRFCYEAVVRHVEQVLQRHGVPPPCKPLASASISQKNHLPQDSQDLVLGGDVPISSIQATIAKLSIRPPGGLESPVASLPGPAEPPGLPPASLPESTPIPSSSPPPLSSPLPEAPQPKEEPPVPEAPSSGPPSSSLELLASLTPEAFSLDSSLRGKQRMSKHNFLQAHNGQGLRATRPSDDPLSLLDPLWTLNKT |  |  | 28 | 0.2 | 6000 |
